Measured values published in the supplement of paper PMC7125110.
± gives the standard error. Variants at the floor of the assay were thinned out.

B1: glmS ribozyme (parent)
chain: AUAAAAGCGCCAGAACUACAGAAAUGUAGUUGACGAGGAGGAGGUUUAUCGAAUUUUCGGCGGAUGCCUCCAAA

Columns and labels:
Settings in all cases: with glucosamine-6-phosphate
glucosamine-6-phosphate [1] = variants of: B1; experiment: self-cleavage kobs at 160 uM GlcN6P; higher = faster cleavage; RNA array
Outline: (§1)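 Glucosamine-6-phosphate in HEPES/KCl/Mg(OAc)2 buffer, at 40 μM to 10 mM, was flowed over barcoded ribozyme variants transcribed in situ by E. coli RNA polymerase on sequenced MiSeq chips. Tracking was through a hybridised Cy3 probe at 37 °C. kobs, kcat and KM came from exponential decay fits and weighted Michaelis–Menten fits of normalised per-tile medians.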

glucosamine-6-phosphate [2] = variants of: B1; experiment: self-cleavage kobs at 2500 uM GlcN6P; higher = faster cleavage; RNA array
Outline: as §1

glucosamine-6-phosphate [3] = variants of: B1; experiment: self-cleavage kobs at 10000 uM GlcN6P; higher = faster cleavage; RNA array
Outline: as §1

glucosamine-6-phosphate [4] = variants of: B1; experiment: self-cleavage kobs at 640 uM GlcN6P; higher = faster cleavage; RNA array
Outline: as §1

Row | Variant | self-cleavage kobs at 160 uM GlcN6P (glucosamine-6-phosphate [1]) | self-cleavage kobs at 2500 uM GlcN6P (glucosamine-6-phosphate [2]) | self-cleavage kobs at 10000 uM GlcN6P (glucosamine-6-phosphate [3]) | self-cleavage kobs at 640 uM GlcN6P (glucosamine-6-phosphate [4])
1 | AUAAAAGCUCCAGAACUACAGAAAUGUAGUUGACGAGGAGGAGGUUUUUCGAAUUUACGGCGGAUGCCUCCAAA | < 1e-05 s⁻¹ | < 1e-05 s⁻¹ | < 1e-05 s⁻¹ | 
2 | AUAAAAGCUCCAGAACUACAGAAAUGUAGUUGACGAGGAGGAGGCUUAUCGAAUUUUCGGCGGAUGCCUCCAAA | < 1e-05 s⁻¹ | < 1e-05 s⁻¹ | < 1e-05 s⁻¹ | < 1e-05 s⁻¹
3 | AUAAAAGCGGCAGAACUACAGAAAUGUAGUUUAUGAGGAUCAGGUUUAUCGAAUUUUCGGCGGAUGCCUCCAAA | < 1e-05 s⁻¹ | < 1e-05 s⁻¹ |  | < 1e-05 s⁻¹
4 | AUAAAAGCGGCAGAACUACAGAAAUGUACUUGACGAGGAGGAGGUUUAUGGAAUUUUGGGCGGUUGCCUACAAA | 0.000119 ± 3.1e-05 s⁻¹ | 0.000165 ± 4e-05 s⁻¹ |  | 0.000201 ± 6.9e-05 s⁻¹
5 | AUAAAAGCUCCAGAACUACAGAAAUGUAAUUGACUAGGAGGAGGUGUAUCGAAUUUUCGGCGGAUGCCUCCAAA | < 1e-05 s⁻¹ | < 1e-05 s⁻¹ |  | < 1e-05 s⁻¹
6 | AUAAAAGCUCCAGAACUACAGAAAUGUAGUUGACGAGGAGGAGGUUUUUCGAAUUUUCGGCGGAUGGCUCCAAA | < 1e-05 s⁻¹ | < 1e-05 s⁻¹ |  | < 1e-05 s⁻¹
7 | AUAAAAGCUCCAGAACUACAGAAAUGUAGUUGACGAGGGGGAGGUUUAUCGAAUUUUCGGCGGAUGCCUCCAAA | < 1e-05 s⁻¹ | < 1e-05 s⁻¹ |  | 
8 | AUAAAAGCGACAGAACUACAGAAAUGUAGUUGACGAGGAAGAGGUUUAUCGAAUUUUCGGCGGAUGCCUCAAAA | < 1e-05 s⁻¹ |  |  | < 1e-05 s⁻¹
9 | AUAAAAGCCCCAGAACUACAGAAAUGUAGUUGACGAAGAGGAGGUUUAUCGAAUUUUCGGCGGAUGCCUCCAAA | < 1e-05 s⁻¹ | < 1e-05 s⁻¹ |  | < 1e-05 s⁻¹
10 | AUAAAAGCGACAGAACUACAGAAAUGUAGUUGGCGUCGAGGAGGUUUAUCGAAUUUUCGGGGGAUGCCUCCAAA | < 1e-05 s⁻¹ |  |  | < 1e-05 s⁻¹
11 | AUAAAAGCUCCAGAAUUACAGAAAUGUAGUUGACGAGGAGGAGGUUUAUCGAAUUUUCGGCGGAUGCCUCCAAA | < 1e-05 s⁻¹ | < 1e-05 s⁻¹ | < 1e-05 s⁻¹ | < 1e-05 s⁻¹
12 | AUAAAAGCUCCAGAACUACAGAAAUGUAGUUGAUGAGGAGGAGGUUUAUCGAAAUUUCGGCGGAUGCCUCCAAA | < 1e-05 s⁻¹ |  |  | 
13 | AUAAAAGCGUCAGAACUACAGAAAUGUAGUUGUCGAGGAGGAGGUUUAUCGAAUUUUCGGCUGAUGCCUCAAAA | < 1e-05 s⁻¹ | < 1e-05 s⁻¹ | < 1e-05 s⁻¹ | < 1e-05 s⁻¹
14 | AUAAAAGCCACAGAACUACAGAAAUGUAGUUGACGAGGAGGACGUUUAUCGAAUUUUCGGCGGAUGUCUCCAAA | < 1e-05 s⁻¹ | < 1e-05 s⁻¹ |  | < 1e-05 s⁻¹
15 | AUAAAAGCGGCGGAACUACAGAAAUGUAGUUGACGAGCAGGAGGUUUAUCGAAUUUUCGGCGGAUGCCUCCAAA | < 1e-05 s⁻¹ |  |  | < 1e-05 s⁻¹
16 | AUAAAAGCCCCAGAACUACAGAAAUGUAGUUGACGAGCAGGAGGUUUAUCGAAUUUUCGGCGUAUGCCUCCAAA | < 1e-05 s⁻¹ | < 1e-05 s⁻¹ |  | 
17 | AUAAAAGCGGCAGAACUACAGAAAUGUAGUUGACGACGAGGAGGUUUUUCGAAUUUUCGGAGGAUGCCCCCAAA | < 1e-05 s⁻¹ | < 1e-05 s⁻¹ |  | 
18 | AUAAAAGCUCCAGAACUACAGAAAUGUAGUUGACGACGAGGAGGUUUAUCGAAUUUUCGGCGGAUGCCUCCAAA | < 1e-05 s⁻¹ | < 1e-05 s⁻¹ | < 1e-05 s⁻¹ | < 1e-05 s⁻¹
19 | AUAAAAGCUCCAGAACUACAGAAAUGUAGUUGCCGAGGAGGAGGUUUAUCGAAUUUUCGGCGGAUGGCUCCAAA | < 1e-05 s⁻¹ | < 1e-05 s⁻¹ |  | 
20 | AUAAAAGCGUCAGAUCUACAGAAAUGUAGUUGACGAGGAGGAGGUUUAUCGAAUUUUCGGCGGAUGCCUCCAAA | < 1e-05 s⁻¹ |  | < 1e-05 s⁻¹ | 
21 | AUAAAAGCGGCAGUACUACAGAAAUGUAGUUGACGAGGAGGUGGUUUAUCGAAUUUUCGCCGGAUGGCUCCAAA | < 1e-05 s⁻¹ |  |  | 
22 | AUAAAAGCCCCAGAACUACAGAAAUGUAGUUGACGAGGAGAAGGUUUAUCGAAUUUUCGGCGGAUGCCUCCAAA | < 1e-05 s⁻¹ | < 1e-05 s⁻¹ | < 1e-05 s⁻¹ | 
23 | AUAAAAGCGGCAGAACUACAGAAAUGUAGUUGACGAGUAGGCGGUUUAUCGAAUUUUCGGCGGAUGCCUCCAAA | < 1e-05 s⁻¹ | < 1e-05 s⁻¹ |  | 
24 | AUAAAAGCGGCAGAACUACAGAAAUGUAGUUGACGAGGAGGAGGUUUGUCGAAUUUUCGGCGGUAGCCUCCAAA | < 1e-05 s⁻¹ | < 1e-05 s⁻¹ |  | < 1e-05 s⁻¹
25 | AUAAAAGCGACAGAACUACAGAAAUGUAGUUGCCGAGGAGGAGAUUUAUCGGAUUUUCGGCGGAAGCCUCCAAA | < 1e-05 s⁻¹ |  |  | 
26 | AUAAAAGCGGCAGAACUACAGAAAUGUAGUUGACGAGGACGAGGUUUAUCGAAUUUUCGGCGGAUGCCUCCAAA | < 1e-05 s⁻¹ |  | < 1e-05 s⁻¹ | < 1e-05 s⁻¹
27 | AUAAAAGCGACAGAACUACAGAAAUGUAGUUGACGAGGAGGAGGUUUAUCGUAUUUUCGGCGGAUGCAUCCAAA | 7.21e-05 ± 2.5e-05 s⁻¹ |  |  | 
28 | AUAAAAGCGAGCUAACUACAGAAAUGUAGUUGACGAGGAGGAGGUUUAUCGAAUUUUCGGCGGAUGCCUCCAAA | < 1e-05 s⁻¹ | < 1e-05 s⁻¹ |  | 
29 | AUAAAAGCGGCAAAACUACAGAAAUGUAGUAGACGAGGAGGAGGUUUAUAGAAUUUUCUGCGGAUGCCUCCAAA | < 1e-05 s⁻¹ |  |  | 
30 | AUAAAAGCCCCAGAACUACAGAAAUGUAGUUGACGAGGAGGAGGUUUACCGAAUUUUCGGCGGAUGCCUCCAAA | < 1e-05 s⁻¹ | < 1e-05 s⁻¹ | < 1e-05 s⁻¹ | < 1e-05 s⁻¹
